Source: the supplement of paper PMC12042874
± gives the uncertainty stated by the source.

Test: amyloid nucleation score (Sup35N fusion, yeast selection) (log enrichment); library NNK2; higher = more nucleation; inactive = no reads after selection
Method in brief: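 Libraries of peptides of 20 random codons fused to Sup35N were expressed in psi-negative yeast and induced 24 hours with 100 μM copper sulfate. Selection was 7 days at 30°C on medium lacking adenine and uracil, and plasmid inserts were Illumina-sequenced before and after selection. Nucleation score is the DiMSum log enrichment of output over input reads, centred on the mode score of non-aggregating sequences, and sequences with under 100 input reads were left out.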

Substance | amyloid nucleation score
LRSCSCIGKLDEEPGGFACA | -0.956 ± 0.78
FLVYMIVVV | -0.702 ± 1.1
HYSFRSIAGLQAVCGDNCMD | 0.427 ± 0.52
RCIIIAM | 2.88 ± 0.12
YLSLYGNGC | -0.627 ± 1.1
VCTLRVSDNNLEKKSVLYMR | 3.97 ± 0.047
CMVMGNERM | -0.011 ± 0.22
DYIDKPELLSVLGTRQMKCF | 0.241 ± 0.35
CCELAPWFFTI | 0.068 ± 0.32
FYNYRNDVIFVFLAHMPANY | 2.43 ± 0.13
LGTFKGKSEGPVV | 0.616 ± 0.64
YALWIVMLVP | -0.104 ± 0.49
FWYRAYDLIPVLTAGWRYLF | 0.001 ± 0.76
MHWFPPYDWK | 0.266 ± 1
PRMGFNDPARLGG | -1.34 ± 0.76
TEAFKGLSLS | 0.184 ± 0.49
VIISCTYVNY | -0.002 ± 0.4
RQQIFYSRDVQVNVGGN | inactive
VIVSMVSE | inactive
DSIGVVFEVKTGKARASGVV | 0.171 ± 0.49
NSLNI | -0.127 ± 1.1
NNLLYLLLLYVQTSAE | 4.49 ± 0.099
SVIDDHKKVKSGITRSYREK | 0.504 ± 0.15
WYRTGMGNLLSRGDVDTVRT | 0.131 ± 0.55
TSVQFCLLICLFRSTGNCAR | 2.1 ± 0.1

Substance | amyloid nucleation score
CWLEKLGGSRCFNFNDNKLP | -1.19 ± 0.75
FYHLLLTFGKIVVVQAAWSM | 0.981 ± 0.51
NSESYRCERY | -0.567 ± 0.49
YIDRVTYRLSTGSTMEAWSA | 0.688 ± 0.15
WAQSNISETSYHVGSLLSVA | 0.016 ± 0.32
LTISRSNLGARPF | -0.053 ± 0.39
NVDRFKVINLS | inactive
KGPTSLLYLVMCFMVLQQLR | -0.447 ± 0.78
FFCTQRFSVCVLGVHKLESL | 4.26 ± 0.048
IMYLVENMCHDKKFYCSVNL | 4.34 ± 0.087
YSELIVTVIYKSTSSVRISC | -0.285 ± 0.33
LRAGTKWTNPFEQVYMTWCG | 0.044 ± 1.1
AASWHPAYCIYGPGGRDKVG | 2.49 ± 0.12
LIGCLEQG | -0.156 ± 0.56
LCVVY | -0.237 ± 0.35
IFMNPICFWSNRNFLVWSNN | 4.5 ± 0.059
YLGDTEQECAF | -1.37 ± 0.3
LMATHQPGTFMAGCTTGSEH | 0.914 ± 0.18
FIFVSNKYTNGIFAILGT | 1.98 ± 0.13
GLTFRFGTGTSLSRRFDATV | 6.507 ± 0.045
YTGRSDVNSVLRV | 0.183 ± 1
RSQSSYRIVQWIMYTCDNVL | inactive
YNCGTQRYLVFNNESNSFFS | 3.18 ± 0.071
LRVWVTAFFFSVMMCEQMFQ | inactive
GSYSNAIFIHKLKNKHCFQS | inactive

Substance | amyloid nucleation score
LIVCLFISFFAYELCYESAF | 0.403 ± 0.62
NSLNSMVYYEYFYFLVYVCG | -0.015 ± 0.49
WLIRL | inactive
NQNIVVAVEVQVWFICNFVH | 3.08 ± 0.1
MFAGLIVLCLVWVYRRC | 4.89 ± 0.061
GKVGNNTLSVYGMDTT | inactive
ILYVCDTRELSGWGGRCYAW | 1.73 ± 0.56
SLCQSLDSWCYFLLWHWQWY | -0.637 ± 1.1
YYQGRPWSSVLSFYCFHSYS | inactive
NWCYTTSGHHRVTFGLQRLP | 4.8 ± 0.052
HVYAVRSLLYGGWGRH | 4.46 ± 0.051
PLYLYA | 4.28 ± 0.078
DKYGFSSVSGVTEDFVDGLM | 0.736 ± 0.6
NVNGLLSTN | -0.172 ± 0.76
HYYPLVAIR | 0.389 ± 0.49
QFRTICKLWA | -0.099 ± 0.42
LRYNIMWKQHNATAYDEYRA | 3.65 ± 0.12
MHMAYSLNMSHSHIRAKAGM | 1.06 ± 0.27
VRMMCLQGATTGATNSPSNR | -0.526 ± 0.37
RRKSGLEFLLISNYIILGFR | inactive
LLGWPRLYLWTE | 0.402 ± 0.42
TDISQEGPVNIL | inactive
ALCQYISSSYMWYSVMCELI | inactive
LNCFYEPTSGSKLYTLRPAF | -0.107 ± 1
CVNVTLASFQVLNNPLHRSF | 4.896 ± 0.041

Substance | amyloid nucleation score
LGVVWLS | -0.405 ± 0.3
KGVRVQDTNVGIWAGKWGVV | 0.883 ± 0.29
CGTLINADRPAWH | -0.593 ± 0.35
RFVFQIVSIYISWMVIDKTR | -0.436 ± 0.78
RVSGNCIYTKWCVFPVGNLL | -1.12 ± 0.76
LGNIHIWTSV | -1.53 ± 0.49
GKFYQMENSV | -1.27 ± 0.78
YDKFPRNVGESYEHRCSWSE | 0.458 ± 0.8
YGNCVHHVRGGLHAYRDHNC | -0.137 ± 0.33
DVCLHMGKYSNVLILGHNWS | -0.449 ± 0.36
CRDLKFYAGTRWGKCCMYSA | -0.476 ± 0.32
DTTALHRVTASTLGHRFSLG | 0.58 ± 0.56
VPISHLNCYFFW | 8.686 ± 0.084
DGDLTLNWVRSRLPLKNFRG | 0.144 ± 0.54
GGTGVAV | 0.183 ± 0.34
YPVIPGISRLLNTQRIVFLG | -0.226 ± 0.21
SVRKRKSNNAIPANAPNKI | 0.513 ± 0.35
LRAHFWGDD | 0.335 ± 0.31
QKYLYQGCHLI | -1.24 ± 0.32
FFQVPSSNLVSLTDRLYSLG | -1.16 ± 0.5
VMSFTASA | 0.607 ± 0.51
LWGHLNHQWVCVSVMWVYLS | 3.64 ± 0.081
PPLLSISYKRRRVMFHFHVF | inactive
YRPMEGRLKWSMTVLIVSLY | 0.497 ± 0.46
ILYSSVVSLSCTLAKGNDYT | 1.77 ± 0.4

Substance | amyloid nucleation score
SFKGDDVVYC | -0.052 ± 0.27
NPLFHSPV | 0.01 ± 0.65
YANDELLGAGGADS | 0.652 ± 0.35
VSRSSKMMFFVDHLRYC | 1.55 ± 0.58
DENFHAEGWRCFVYPFY | -0.373 ± 0.27
FSQYCMALLIVNQEFWACCW | -0.944 ± 0.45
QHRFFQYYRS | -1.5 ± 0.64
RNGCLTIEW | 1.78 ± 0.12
VGIYDYVLRSC | 0.115 ± 0.33
IMNRSSSG | 1.03 ± 0.36
ARDCYEDDHKSKSARTVEHT | 0.232 ± 0.31
FDTVGYSACCCWP | 4.78 ± 0.11
TMPTY | 0.709 ± 0.66
GKIKIEGNDLIGGLQGRLRP | inactive
GVCNYPPCPGMMKGKTSLGN | 1.32 ± 0.26
GVAYRWPFGQK | 0.155 ± 1.1
GSSNGRALLYCITLKIMGIV | 0.769 ± 0.4
FGLGVCNWIYGCKMDAFNSG | 6.223 ± 0.039
TFLVLLRVMVWVV | 0.648 ± 0.6
YGSQISLTKEARQEKDTSGS | -0.815 ± 0.34
NGMRIGTDLGFYSRGMLRTQ | 0.162 ± 0.26
KYFTVTDVSLY | 5.911 ± 0.028
KGVCWVTICELHDW | -0.305 ± 0.48
IVSKDRQNFVRCKDSRDHDV | -0.002 ± 0.39
CWFSTTGYDPLEPSFNLVLR | -1.58 ± 0.54

Substance | amyloid nucleation score
MLQPPPNESVSIILLKGSPA | 5.165 ± 0.042
SSYLPLQSTAIGHHSSRYGL | 1.08 ± 0.34
VNLSDDCELVYRSCEVLLNY | -1.34 ± 1.1
DTGSPDGWAQWLPYSEFLGM | -0.283 ± 0.65
SHVCYSRNIH | 1.06 ± 0.26
CAVVKAILSCMFTLSSSCLH | 0.441 ± 0.49
ILDCLRVRESDHVSGRNRVC | 0.509 ± 0.37
TAMEVPHRIWLR | -0.305 ± 1.1
NINDEPPNNHMMHTITHKWT | inactive
YFSQQSEGSALCVLKHWVKS | 0.253 ± 0.42
SLVNATGRWINVVTNFRLNG | 7.565 ± 0.049
FYGFL | inactive
AVVLLLRTAGVVIGHLVLRH | -0.016 ± 0.29
YVTELIDCPGWTRRM | -0.006 ± 0.38
DFTFWCEYSSSPVKKYVIDC | 0.736 ± 0.18
IHGFNLSIRKMQKDGSDGQH | 0.635 ± 0.65
MRLEWNRGLLCDDSYARTAR | 0.83 ± 0.41
WITVVRLIYLAFFQTGST | -0.867 ± 0.63
WLEDAS | -0.557 ± 1.1
VLTNKLQVTVCLLC | 8.448 ± 0.046
RSTDLVSIFRMDLAIRINVL | 0.815 ± 0.13
PMVYRYKGRHIN | -1.27 ± 0.62
RFSLRRNCAMAQWLISATCS | 0.37 ± 0.3
FDLSREV | -0.544 ± 0.29
CNMGLRYTSYLI | -0.212 ± 0.34

Substance | amyloid nucleation score
TIATPHCVYDSCGCSVVSSV | 0.176 ± 0.56
SLCREVPFLWDFCL | 0.163 ± 0.63
ITSLRSLRYFHVEFVSRLWL | 0.554 ± 0.81
CAVRWVGVS | 1.12 ± 0.23
MQNANLIQTFEGYIYPMDIQ | 0.433 ± 0.74
KEGFPMIIDYEIGFTDLSGG | -1.43 ± 0.75
LERECVENDGLGWSRLEYVR | 0.42 ± 0.33
NSVWANARRLTVCGAERGGT | 1.24 ± 0.17
HSGCCRYLLNNWLYSYMQFY | 4.08 ± 0.05
YIKFIFCP | inactive
FGIERCRLYGNFYCVAVLGS | inactive
NIRTKILLGY | 0.006 ± 0.44
IGTYWYVKLWRYSYVYPYLD | 0.665 ± 0.57
EYHLDHDFSPMGMAPRH | 0.049 ± 0.63
LFNLACLRGRKTVWITDKLT | 0.012 ± 0.5
LAQNEHTLVFILLTNGKS | 3.18 ± 0.046
TELVWLPWTRFCFGRNYRG | 0.101 ± 0.35
MRDRMVAAARLFRGVSRLAF | -0.268 ± 0.48
MRLHSLGRCGQWSCDVGRER | 0.918 ± 0.35
RFYCRRT | 0.199 ± 0.33
SRNNCRCD | -1.17 ± 1.1
SMYLKKGRSVRGGMG | -0.66 ± 0.44
LNLIHR | 0.153 ± 0.79
VDIGENLEFCIVLSQ | -0.19 ± 0.55
